Target: Recombinant TcdB (aa 1751–2366), biotinylated (Clostridioides difficile; strain of …, UniProt P18177)
Experiment: SPR
Conditions: both partners purified

Recombinant TcdB (aa 1751–2366), biotinylated, sequence (P18177 1751-2366): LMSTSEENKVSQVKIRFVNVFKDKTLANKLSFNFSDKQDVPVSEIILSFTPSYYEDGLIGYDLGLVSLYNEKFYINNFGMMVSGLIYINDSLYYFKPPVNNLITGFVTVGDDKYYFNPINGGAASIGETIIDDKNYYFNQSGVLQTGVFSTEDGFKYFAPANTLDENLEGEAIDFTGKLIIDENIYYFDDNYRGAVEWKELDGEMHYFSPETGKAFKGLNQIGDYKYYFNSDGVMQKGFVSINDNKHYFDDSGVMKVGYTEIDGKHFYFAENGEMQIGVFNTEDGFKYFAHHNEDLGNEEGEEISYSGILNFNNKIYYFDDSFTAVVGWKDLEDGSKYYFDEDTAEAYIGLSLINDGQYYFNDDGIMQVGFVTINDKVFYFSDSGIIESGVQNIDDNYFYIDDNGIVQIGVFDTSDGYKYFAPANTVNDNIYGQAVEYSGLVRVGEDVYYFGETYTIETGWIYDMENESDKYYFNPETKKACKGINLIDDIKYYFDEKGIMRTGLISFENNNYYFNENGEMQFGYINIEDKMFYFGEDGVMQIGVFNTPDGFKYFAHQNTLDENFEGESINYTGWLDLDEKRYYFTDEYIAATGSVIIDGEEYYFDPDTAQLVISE

B1: B39 (VHH)
VHH: QVQLVESGGGLVQAGGSLRLSCAASGLTFSRYVMGWFRQAPGKEREFVAAITWGGTPNYADSVKGRFTISRDNSKNTQYLQMNSLKPEDTAVYYCAAGLGWDSRYSQSYNYWGQGTQVTVSS
Question: Which Kd does the source give for B1 here?
Answer: The Kd was 0.07 nM.

Question: And the koff?
Answer: The koff was 0.00256 s⁻¹.

Question: What about the kon of the same binder?
Answer: The kon was 3.44e+07 M⁻¹ s⁻¹.
